Experiments:
[1] = target: NKG2D ligands; assay: flow cytometry, human primary NK cells after 24 h 1:1 co-culture with HL60 cells, NKG2D-Fc protein 5 µg/mL, anti-human IgG Fc-PE; histogram peak near 10^2; control NK only+PBS: 12.0
[2] = target: NKG2D ligands; assay: flow cytometry, human primary NK cells after 24 h 1:1 co-culture with KG-1 cells, NKG2D-Fc protein 5 µg/mL, anti-human IgG Fc-PE; histogram peak near 10^2; control NK only+PBS: 12.0
[3] = target: NKG2D ligands; assay: flow cytometry, human primary NK cells after 24 h 1:1 co-culture with THP-1 cells, NKG2D-Fc protein 5 µg/mL, anti-human IgG Fc-PE; histogram peak near 10^2; control NK only+PBS: 12.0
[4] = target: NKG2D ligands; assay: flow cytometry, human primary NK cells after 24 h 1:1 co-culture with MV4-11 cells, NKG2D-Fc protein 5 µg/mL, anti-human IgG Fc-PE; faint histogram near 10^2; control NK only+PBS: 12.0
[5] = target: NKG2D ligands; assay: flow cytometry, human primary NK cells after 24 h 1:1 co-culture with NKG2D-UCAR-T cells, NKG2D-Fc protein 5 µg/mL, anti-human IgG Fc-PE; histogram peak near 10^2; control NK only+PBS: 12.0

NKG2D-Fc protein, sequence (P26718 78-216 limits assumed): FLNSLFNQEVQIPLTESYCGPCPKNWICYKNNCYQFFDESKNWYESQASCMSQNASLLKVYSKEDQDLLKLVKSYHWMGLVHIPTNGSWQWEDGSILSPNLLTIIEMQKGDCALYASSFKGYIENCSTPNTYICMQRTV

PE fluorescence statistic, name not given [1]: 107
PE fluorescence statistic, name not given [2]: 99.7
PE fluorescence statistic, name not given [3]: 125
PE fluorescence statistic, name not given [4]: 124
PE fluorescence statistic, name not given [5]: 95
Substance: NKG2D-Fc protein (from UniProt P26718) (Fc fusion)
